This is an account of results in paper PMC11772326.

One data set addresses ZmMYB42 (Zea mays, UniProt K7V4N7 1-264). Briefly: EMSA.
A further data set has as its target T1, ZmUB3 (Zea mays, UniProt A0A804P0G2 1-407).
T1 sequence: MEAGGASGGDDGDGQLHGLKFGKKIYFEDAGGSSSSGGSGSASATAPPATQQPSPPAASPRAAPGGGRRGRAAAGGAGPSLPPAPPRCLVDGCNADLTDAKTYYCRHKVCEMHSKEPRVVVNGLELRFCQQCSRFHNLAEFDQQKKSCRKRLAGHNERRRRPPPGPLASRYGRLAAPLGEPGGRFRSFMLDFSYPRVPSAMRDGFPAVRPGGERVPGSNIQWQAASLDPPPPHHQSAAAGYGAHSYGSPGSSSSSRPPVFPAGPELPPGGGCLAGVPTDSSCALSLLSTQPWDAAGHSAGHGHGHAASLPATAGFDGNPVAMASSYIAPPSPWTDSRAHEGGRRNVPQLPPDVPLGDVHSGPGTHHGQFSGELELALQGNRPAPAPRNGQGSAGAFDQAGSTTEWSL
The data set is described as follows: EMSA. (In general: In EMSA bound probe runs differently from free probe, usually more slowly.)

B1: ZmLHT14 MBS 40 bp probe (dsDNA)
DNA 1: GCGGTGCCGGAGTAGATAACTGGTACTACAAAACACAATA
DNA 2: TATTGTGTTTTGTAGTACCAGTTATCTACTCCGGCACCGC
B1: in the data set with ZmMYB42, the binding result is listed as “binds”.

B2: ZmMYB42 promoter GTAC 40 bp probe (dsDNA)
DNA 1: TAACAAGGGCTTAACATGGTACGGTTTATTATATGTCAGA
DNA 2: TCTGACATATAATAAACCGTACCATGTTAAGCCCTTGTTA
In the case of B2, in the data set with ZmUB3, the binding result is on record as “binds”.

B3: ZmMYB63 promoter GTAC 40 bp probe (dsDNA)
DNA 1: AAGTTTTGCGCACAGTGGTACGGAGGCGGACTGCTCCAAT
DNA 2: ATTGGAGCAGTCCGCCTCCGTACCACTGTGCGCAAAACTT
Turning to B3, the binding result in the data set with ZmUB3 is “binds”.

B4: ZmSWEET13c MBS 40 bp probe (dsDNA)
DNA 1: ATGCTGTATTGAGTCCCCCGTTGTCGGAAATTAAAATTAT
DNA 2: ATAATTTTAATTTCCGACAACGGGGGACTCAATACAGCAT
For B4, the binding result in the data set with ZmMYB42 is given as “binds”.

B5: ZmSWEET10 MBS 40 bp probe (dsDNA)
DNA 1: TCCCGGCCCTGTGCTGATAACTGTCTCTCTTTATTACGTG
DNA 2: CACGTAATAAAGAGAGACAGTTATCAGCACAGGGCCGGGA
B5: the binding result in the data set with ZmMYB42 is “binds”.
